Numbering of substitutions follows the chain as printed.

Holding throughout (assay): EMSA; 400 nM protein; 50 ng/ul Poly (competitor (so in the source)), 0.05% NP-40, 50 mM KCl, 5 mM MgCl2, 10 mM EDTA, 20 ul, 0.4 ng (16 fmol) probe; 30 min at room temperature (Methods) or 30 C; pH not stated; synapsis 2 h at 30 C
What all share (details): protein: recombinant; tags: C-terminal His; chain copies: 2; label: biotin, double-strand end-labeled; blunt
(In general: In EMSA bound probe runs differently from free probe, usually more slowly.)

For one series, the target named is T1, phiC31 integrase V571A (Streptomyces phage phiC31, UniProt Q38194 1-613, V571A).
T1 sequence: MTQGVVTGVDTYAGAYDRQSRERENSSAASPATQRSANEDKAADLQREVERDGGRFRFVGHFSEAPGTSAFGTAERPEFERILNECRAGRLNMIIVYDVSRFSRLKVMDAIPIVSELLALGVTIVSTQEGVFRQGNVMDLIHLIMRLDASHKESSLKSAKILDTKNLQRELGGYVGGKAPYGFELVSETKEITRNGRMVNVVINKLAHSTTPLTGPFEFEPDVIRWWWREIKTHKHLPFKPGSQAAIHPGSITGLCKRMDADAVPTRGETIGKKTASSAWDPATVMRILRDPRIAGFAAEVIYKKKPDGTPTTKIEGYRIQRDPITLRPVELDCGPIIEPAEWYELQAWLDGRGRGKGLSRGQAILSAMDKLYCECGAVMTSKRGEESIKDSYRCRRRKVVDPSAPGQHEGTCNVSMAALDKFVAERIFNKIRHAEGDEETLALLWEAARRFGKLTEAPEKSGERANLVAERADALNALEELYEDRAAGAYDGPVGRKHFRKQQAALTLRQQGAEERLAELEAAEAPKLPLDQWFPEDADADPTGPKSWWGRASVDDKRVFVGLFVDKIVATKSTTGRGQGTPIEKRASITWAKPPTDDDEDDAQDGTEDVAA

Series [1] concerns the target T2, phiC31 integrase G182A/F183A (Streptomyces phage phiC31, UniProt Q38194 1-613, G182A;F183A).
T2 sequence: T1 sequence with G182A, F183A, A571V

A further series addresses T3, phiC31 integrase Y393A (Streptomyces phage phiC31, UniProt Q38194 1-613, Y393A).
T3 sequence: T1 sequence with Y393A, A571V

B1: attB 41 bp (dsDNA)
DNA 1: CGGGTGCCAGGGCGTGCCCTTGGGCTCCCCGGGCGCGTACT
DNA 2: AGTACGCGCCCGGGGAGCCCAAGGGCACGCCCTGGCACCCG
B1: the binding signal with phiC31 integrase V571A was 15.6 ± 1.7 % of WT; in series [1], 0 % of WT; with phiC31 integrase Y393A, 0 % of WT.

The record behind these values is publication PMC2810336, “Mutational Analysis of Highly Conserved Residues in the Phage PhiC31 Integrase Reveals Key Amino Acids Necessary for the DNA Recombination”.
